{"source": "patent US20050112552A1", "about": "“Identification and isolation of novel polypeptides having PDZ domains and methods of using same” (AxCell Biosciences Corporation, priority 2000, published 2005)", "key": {"[1]": {"target": "T1, interaction between the first PDZ domain in PSD-95 and the carboxy terminal peptide sequence of Na channel protein (Homo sapiens, UniProt P78352)", "T1 construct": "a GST-PSD-95.1 fusion protein of the first PDZ domain of PSD-95; made in house", "assay": "Competitive inhibition analysis of PDZ domain-peptide ligand interaction", "format": "binding", "conditions": "GST-PSD-95.1 coated plates, biotinylated Na+ channel peptide (SEQ ID NO:51), various inhibitor concentrations, A405 nm", "excerpt": "FIG. 19 presents a competitive inhibition analysis of the interaction between the first PDZ domain in PSD-95 and the carboxy terminal peptide sequence of Na channel protein. GST fusion protein containing the first PZD domain of PSD-95 was contacted with a recognition unit-peptide complex corresponding to the 12 carboxyl terminal amino acids of Na^+ channel protein (FIG. 5A, SEQ ID NO:51) and various concentrations of 1 of 3 different inhibitor peptide complexes. Binding of the dimer inhibitor peptide in the presence of streptavidin alkaline phosphatase/Biotin-Ser-Gly-Ser-Gly-Pro-Pro-Ser-Pro-Asp-Arg-Asp-Arg-Glu-Ser-Ile-Val-COOH (SEQ ID NO:157) is presented as a solid box. Binding of the recognition unit in the presence of a peptide corresponding to the 5 carboxy terminal residues of the Na^+ channel protein (SEQ ID NO:105) (hatched box), and in the presence of a scrambled version of this 5mer (SEQ ID NO:158) (open box), are also presented. Binding of the biotinylated peptide was quantitated at A405 nm. […]\nAn inhibition assay essentially as described in Section 5.4 was performed to assess the ability of PDZ ligands to uncouple NOS from the NMDA receptor. […] Particularly, biotinylated peptide and various concentrations of an inhibitor were added to microtiter plates coated with the GST-PSD-95.1 fusion protein and the binding interactions were quantified as described above. […]"}, "[2]": {"target": "first PDZ domain of PSD-95 (PSD-95-1) (Homo sapiens, UniProt P78352)", "conditions": "for binding to the first PDZ domain of PSD-95: cross-affinity map, no test compound, in words; for PDZ domain-recognition unit interaction, PSD-95-1: GST fusion protein", "method": "(§1) Assays that generate the data, e.g., that of FIGS. 5A and 5B, are conducted in the presence of various compounds that potentially effect the binding of the domains to respective recognition units.\n(§2) To determine the ligand preferences of the novel PDZ domain-containing clones described in Section 6.1 the novel PDZ domains derived from PDZP2, PDZP3, KIAA-147, and the three PDZ domains of PSD-95 and Chapsyn were subcloned into glutathione S-transferase (GST) expression vectors and expressed as GST fusion proteins. We examined the peptide ligand binding preferences of all sixteen individual PDZ domains in an enzyme-linked immunosorbent assay-based cross-affinity map experiment. As mentioned above, 45 peptides were chosen from database searches and grouped into seven classes (G-protein coupled receptors, viral proteins, glutamate receptors, ion channels, Frizzled homologs, transporters and various other proteins). We tested the ability of these peptides to bind to the known and novel PDZ domains.\n(§3) PCR fragments encoding individual PDZ domains were subcloned into the Sal1 and Notl sites of pGEX-4T-2 (Pharmacia Biotech, Inc.) and fusion proteins were expressed and purified as described by the manufacturer. ELISA based cross-affinity experiments were performed essentially as described by Sparks et al. (1996, Proc. Natl. Acad. Sci. USA 93:1540-1544) with the following modifications. Briefly, microtiter wells were coated with […] of fusion protein in 100 mM NaHCO3, blocked with SuperBlock TBS (Pierce) and washed four times with PBS, 0.05% Tween 20. Specific peptide-streptavidin/alkaline phosphatase complexes were added as above and unbound complexes washed five times with PBS, 0.05% Tween 20. Following addition of PNP substrate (p-nitrophenyl phosphate, Kirkegard & Perry Labs), peptide binding was quantitated after 30 min. at O.D. 405 nm. Relative binding measurements from three independent determinations were assigned to a scale as follows: O.D. units 0−0.5=(−), 0.5−1.0=(+), 1.0−2.0=(++), 2.0−3.0=(+++)>3.0=(++++). Peptide sequences used in cross-affinity experiments correspond to C-terminal segments of the following proteins: protein name (species: H=Human; M=Mouse; R=Rat; B=Bovine; V=Viral Origin, Genbank accession number); β1-adrenoreceptor (H, P18090); Serotonin Receptor (H, P28223); VIP Receptor (H, P32241); CRF Receptor (H, P34998); Orphan Receptor (H, P46089); β-1 Adrenergic Receptor (H, P08588); COM (ADE02, P03267); E6, HPV18 (V, P06463); UL25, HSV11 (V, P10209); GP3, EBV (V, P03200); TAT, HTL1A (V, P03409); UL14, VZVD (V, P09295); NMDA Receptor, NR2B (M, Q01097); NMDA Receptor subunit (H, U08266); mGluR1α (H, U31215); mGluR5a (H, D28538); mGluR (H, L76631); mGluR3 (H, AC002081); AMPA receptor (H, L20814); K^+-Channel, KV 1.4 (H, P22459); K^+-Channel Kir 2.2v (H, U53143); Na^+-Channel (a) (H, P15389); K^+-Channel (Kir) (H, D50582); Transmembrane Receptor (Homolog of frizzled ) (H, U43318); Homolog of frizzled (R, L02529); Homolog of frizzled (M, U43319); Glucose transporter (H, P11166); Excitatory Amino Acid Transporter (H, P43003); FAS Receptor (H, P25445); NGF Receptor (H, P08138); Neuropeptide Y Receptor, type 2 (H, P49146); Somatostatin Receptor, type 2 (H, P30874); CFTR (H, P13569); V-CAM (H, P19320); Ankyrin (H, Q01484); Fanconi anemia group C protein (H , Q00597); Calcium pump (H, P23634); APC protein (H, P25054); BCR, (H, P11274); MPK2 (H, P36507); Colorectal Mutant Cancer Protein (H, P23508); 65 KD Yes-Associated Protein (H, P46937); Neutrophil Cytosol Factor 1 (H, P14598); Neurexin III, (B, L27869); Neurexin II (B, L14855). Protein sequence homology searches were performed using BLAST (Altschul et al., 1990, J. Mol. Biol. 215:403-410)."}, "PDZP2.2": {"target": "PDZP2.2 (Homo sapiens, UniProt Q96QZ7)", "sequence (Q96QZ7 639-720 limits assumed)": "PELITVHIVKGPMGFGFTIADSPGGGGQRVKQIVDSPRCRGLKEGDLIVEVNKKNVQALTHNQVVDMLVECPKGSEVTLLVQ", "conditions": "GST fusion protein", "method": "as §1, §2, §3"}, "PDZP3.2": {"target": "PDZP3.2 (Homo sapiens, UniProt Q8NI35)", "sequence (Q8NI35 1530-1614 limits assumed)": "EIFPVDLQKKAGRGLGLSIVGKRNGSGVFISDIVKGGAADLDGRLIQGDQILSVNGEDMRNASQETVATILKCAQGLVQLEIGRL", "conditions": "GST fusion protein", "method": "as §1, §2, §3"}, "PDZP2.3": {"target": "PDZP2.3 (Homo sapiens, UniProt Q96QZ7)", "sequence (Q96QZ7 837-922 limits assumed)": "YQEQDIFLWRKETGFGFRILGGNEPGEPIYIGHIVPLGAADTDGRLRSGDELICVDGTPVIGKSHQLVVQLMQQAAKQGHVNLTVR", "conditions": "GST fusion protein", "method": "as §1, §2, §3"}, "PDZP3.1": {"target": "PDZP3.1 (Homo sapiens, UniProt Q8NI35)", "sequence (Q8NI35 1433-1519 limits assumed)": "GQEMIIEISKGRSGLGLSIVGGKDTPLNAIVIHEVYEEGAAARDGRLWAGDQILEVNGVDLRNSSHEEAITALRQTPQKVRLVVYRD", "conditions": "GST fusion protein", "method": "as §1, §2, §3"}, "PDZP2.4": {"target": "PDZP2.4 (Homo sapiens, UniProt Q96QZ7)", "sequence (Q96QZ7 with tags, fused parts or gaps isoform Q96QZ7-2 limits assumed)": "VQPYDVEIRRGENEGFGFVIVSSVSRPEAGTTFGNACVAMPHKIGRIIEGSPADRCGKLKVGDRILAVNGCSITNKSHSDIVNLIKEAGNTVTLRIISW", "conditions": "GST fusion protein", "method": "as §1, §2, §3"}, "PDZP2.1": {"target": "PDZP2.1 (Homo sapiens, UniProt Q96QZ7, D549G/L550P)", "sequence (Q96QZ7 468-553 D549G/L550P limits assumed)": "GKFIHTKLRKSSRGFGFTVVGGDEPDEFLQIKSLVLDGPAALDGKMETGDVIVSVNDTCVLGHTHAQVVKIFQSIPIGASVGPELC", "conditions": "GST fusion protein", "method": "as §1, §2, §3"}, "[3]": {"target": "T2, second PDZ domain of PSD-95 (Homo sapiens, UniProt P78352)", "set-up": "PCR fragments encoding individual PDZ domains were subcloned; made in house", "conditions": "stated as known; cited from earlier work"}, "[4]": {"target": "third PDZ domain of Chapsyn (Homo sapiens, UniProt Q15700)", "conditions": "cross-affinity map; in words", "excerpt": "as §2, §3"}, "[5]": {"target": "third PDZ domain of PSD-95 (Homo sapiens, UniProt P78352, D348N)", "conditions": "cross-affinity map; in words", "excerpt": "as §2, §3"}, "[6]": {"target": "T2, second PDZ domain of PSD-95", "conditions": "cross-affinity map, in words", "excerpt": "as §2, §3"}, "[7]": {"target": "second PDZ domain of Chapsyn (Homo sapiens, UniProt Q15700)", "conditions": "cross-affinity map; in words", "excerpt": "as §2, §3"}, "[8]": {"target": "first PDZ domain of Chapsyn (Homo sapiens, UniProt Q15700, V177A)", "conditions": "cross-affinity map; in words", "excerpt": "as §2, §3"}, "[9]": {"conditions": "listed as NMDA receptor NR2 subunit"}}, "note": "Where two headings read alike, the source gives them in different places. Where no end group is shown, it is not given here."}
{"substance": "AC-Cys-Pro-Pro-Ser-Pro-Asp-Arg-Asp-Arg-Glu-Ser-Ile-Val-COOH (Ac-CPPSPDRDRESIV-OH) [dimer inhibitor]", "values": [{"measurement": "inhibition of the interaction of the PDZ domain and ligand", "setting": "[1]", "value": "able to inhibit"}]}
{"substance": "Arg-Glu-Ser-Ile-Val-COOH (RESIV-OH) [5mer containing the carboxy terminal 5 residues of the Na+ channel peptide]", "values": [{"measurement": "inhibition of the interaction of the PDZ domain and ligand", "setting": "[1]", "value": "to a lesser extent"}]}
{"substance": "SEQ ID NO. 42: biotinylated peptide, 12 carboxy terminal amino acids of NMDA (NR2B), mouse (VYEKLSSIESDV; not fully specified; also: biotinylated, position not given here)", "values": [{"measurement": "binding to the first PDZ domain of PSD-95", "setting": "[2]", "value": "positive interaction"}, {"measurement": "binding to the first PDZ domain of PSD-95", "setting": "[2]; [9]", "value": "bind to the first and second PDZ domain"}, {"measurement": "PDZ domain-recognition unit interaction, PSD-95-1", "setting": "[2]; in the presence of Compound A", "value": "− (O.D. units 0−0.5=(−))"}, {"measurement": "PDZ domain-recognition unit interaction, PSD-95-1", "setting": "[2]; in the presence of Compound B", "value": "+++ (2.0−3.0=(+++))"}, {"measurement": "PDZ domain-recognition unit interaction, PSD-95-1", "setting": "[2]; in the presence of Compound C", "value": "+++ (2.0−3.0=(+++))"}, {"measurement": "PDZ domain-recognition unit interaction, PDZ2.2", "setting": "PDZP2.2; in the presence of Compound A", "value": "+ (0.5−1.0=(+))"}, {"measurement": "PDZ domain-recognition unit interaction, PDZ2.2", "setting": "PDZP2.2; in the presence of Compound B", "value": "+++ (2.0−3.0=(+++))"}, {"measurement": "PDZ domain-recognition unit interaction, PDZ2.2", "setting": "PDZP2.2; in the presence of Compound C", "value": "+ (0.5−1.0=(+))"}, {"measurement": "PDZ domain-recognition unit interaction, PDZ3.2", "setting": "PDZP3.2; in the presence of Compound A", "value": "− (O.D. units 0−0.5=(−))"}, {"measurement": "PDZ domain-recognition unit interaction, PDZ3.2", "setting": "PDZP3.2; in the presence of Compound B", "value": "− (O.D. units 0−0.5=(−))"}, {"measurement": "PDZ domain-recognition unit interaction, PDZ3.2", "setting": "PDZP3.2; in the presence of Compound C", "value": "− (O.D. units 0−0.5=(−))"}, {"measurement": "PDZ domain-recognition unit interaction, PDZ2.3", "setting": "PDZP2.3; in the presence of Compound A", "value": "+ (0.5−1.0=(+))"}, {"measurement": "PDZ domain-recognition unit interaction, PDZ2.3", "setting": "PDZP2.3; in the presence of Compound B", "value": "++++ (>3.0=(++++))"}, {"measurement": "PDZ domain-recognition unit interaction, PDZ2.3", "setting": "PDZP2.3; in the presence of Compound C", "value": "+ (0.5−1.0=(+))"}, {"measurement": "PDZ domain-recognition unit interaction, PDZ3.1", "setting": "PDZP3.1; in the presence of Compound A", "value": "+ (0.5−1.0=(+))"}, {"measurement": "PDZ domain-recognition unit interaction, PDZ3.1", "setting": "PDZP3.1; in the presence of Compound B", "value": "++++ (>3.0=(++++))"}, {"measurement": "PDZ domain-recognition unit interaction, PDZ3.1", "setting": "PDZP3.1; in the presence of Compound C", "value": "++++ (>3.0=(++++))"}, {"measurement": "PDZ domain-recognition unit interaction, PDZ2.4", "setting": "PDZP2.4; in the presence of Compound A", "value": "+ (0.5−1.0=(+))"}, {"measurement": "PDZ domain-recognition unit interaction, PDZ2.4", "setting": "PDZP2.4; in the presence of Compound B", "value": "++++ (>3.0=(++++))"}, {"measurement": "PDZ domain-recognition unit interaction, PDZ2.4", "setting": "PDZP2.4; in the presence of Compound C", "value": "+ (0.5−1.0=(+))"}, {"measurement": "PDZ domain-recognition unit interaction, PDZP2.1", "setting": "PDZP2.1; in the presence of Compound A", "value": "+ (0.5−1.0=(+))"}, {"measurement": "PDZ domain-recognition unit interaction, PDZP2.1", "setting": "PDZP2.1; in the presence of Compound B", "value": "++++ (>3.0=(++++))"}, {"measurement": "PDZ domain-recognition unit interaction, PDZP2.1", "setting": "PDZP2.1; in the presence of Compound C", "value": "+ (0.5−1.0=(+))"}, {"measurement": "binding to the second PDZ domain of PSD-95", "setting": "[3]", "value": "binds"}, {"measurement": "binding to the third PDZ domain of Chapsyn", "setting": "[4]", "value": "same binding specificities"}, {"measurement": "binding to the third PDZ domain of PSD-95", "setting": "[5]", "value": "not the third PDZ domain"}, {"measurement": "binding to the second PDZ domain of PSD-95", "setting": "[6]", "value": "positive interaction"}, {"measurement": "binding to the second PDZ domain of PSD-95", "setting": "[6]; [9]", "value": "bind to the first and second PDZ domain"}, {"measurement": "binding to the second PDZ domain of Chapsyn", "setting": "[7]", "value": "same binding specificities"}, {"measurement": "binding to the first PDZ domain of Chapsyn", "setting": "[8]", "value": "same binding specificities"}]}
